According to patent US20230250154A1 (CYTONICS, published 2023):
Positions count from the first letter of the chain named. Names and notes keep the numbering of the source.

B1: Variant A2M, bait region SEQ ID NO 7 (other)
chain: SVSGKPQYMVLVPSLLHTETTEKGCVLLSYLNETVTVSASLESVRGNRSLFTDLEAENDVLHCVAFAVPKSSSNEEVMFLTVQVKGPTQEFKKRTTVMVKNEDSLVFVQTDKSIYKPGQTVKFRVVSMDENFHPLNELIPLVYIQDPKGNRIAQWQSFQLEGGLKQFSFPLSSEPFQGSYKVVVQKKSGGRTEHPFTVEEFVLPKFEVQVTVPKIITILEEEMNVSVCGLYTYGKPVPGHVTVSICRKYSDASDCHGEDSQAFCEKFSGQLNSHGCFYQQVKTKVFQLKRKEYEMKLHTEAQIQEEGTVVELTGRQSSEITRTITKLSFVKVDSHFRQGIPFFGQVRLVDGKGVPIPNKVIFIRGNEANYYSNATTDEHGLVQFSINTTNVMGTSLTVRVNYKDRSPCYGYQWVSEEHEEAHHTAYLVFSPSKSFVHLEPMSHELPCGHTQTVQAHYILNGGTLLGLKKLSFYYLIMAKGGIVRTGTHGLLVKQEDMKGHFSISIPVKSDIAPVARLLIYAVLPTGDVIGDSAKYDVENCLANKVDLSFSPSQSLPASHAHLRVTAAPQSVCALRAVDQSVLLMKPDAELSASSVYNLLPEKDLTGFPGPLNDQDDEDCINRHNVYINGITYTPVSSTNEKDMYSFLEDMGLKAFTNSKIRKPKMCPQLEHGPEGEGEGEGIPENFFGVRYSEDLVVQISELEGRGSVEEPHTKLRKYFPETWIWDLVVVNSAGVAEVGVTVPDTITEWKAGAFCLSEDAGLGISSTASLRAFQPFFVELTMPYSVIRGEAFTLKATVLNYLPKCIRVSVQLEASPAFLAVPVEKEQAPHCICANGRQTVSWAVTPKSLGNVNFTVSAEALESQELCGTEVPSVPEHGRKDTVIKPLLVEPEGLEKETTFNSLLCPSGGEVSEELSLKLPPNVVEESARASVSVLGDILGSAMQNTQNLLQMPYGCGEQNMVLFAPNIYVLDYLNETQQLTPEIKSKAIGYLNTGYQRQLNYKHYDGSYSTFGERYGRNQGNTWLTAFVLKTFAQARAYIFIDEAHITQALIWLSQRQKDNGCFRSSGSLLNNAIKGGVEDEVTLSAYITIALLEIPLTVTHPVVRNALFCLESAWKTAQEGDHGSHVYTKALLAYAFALAGNQDKRKEVLKSLNEEAVKKDNSVHWERPQKPKAPVGHFYEPQAPSAEVEMTSYVLLAYLTAQPAPTSEDLTSATNIVKWITKQQNAQGGFSSTQDTVVALHALSKYGAATFTRTGKAAQVTIQSSGTFSSKFQVDNNNRLLLQQVSLPELPGEYSMKVTGEGCVYLQTSLKYNILPEKEEFPFALGVQTLPQTCDEPKAHTSFQISLSVSYTGSRSASNMAIVDVKMVSGFIPLKPTVKMLERSNHVSRTEVSSNHVLIYLDKVSNQTLSLFFTVLQDVPVRDLKPAIVKVYDYYETDEFAIAEYNAPCSKDLGNADYKDDDDKGASHHHHHH
B2: Variant A2M, bait region SEQ ID NO 8 (other)
chain: B1 chain with R690L

What was measured:
Assay in all cases: cell-based or functional assay
Elastase = target: Elastase
MMP1 = target: T1, MMP1 (human, UniProt P03956 100-469, limits assumed)
T1 sequence (looked up): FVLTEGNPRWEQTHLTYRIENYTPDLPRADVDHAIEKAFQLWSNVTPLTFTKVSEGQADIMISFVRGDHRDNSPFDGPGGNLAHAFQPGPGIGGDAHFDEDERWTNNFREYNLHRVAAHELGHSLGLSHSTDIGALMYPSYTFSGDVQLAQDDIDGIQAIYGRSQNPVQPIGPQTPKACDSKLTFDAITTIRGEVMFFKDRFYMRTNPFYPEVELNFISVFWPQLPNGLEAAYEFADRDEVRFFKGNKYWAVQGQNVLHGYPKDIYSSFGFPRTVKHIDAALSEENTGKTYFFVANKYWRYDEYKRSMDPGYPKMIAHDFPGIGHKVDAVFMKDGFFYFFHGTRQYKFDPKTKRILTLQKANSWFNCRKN

MMP9 = MMP9 (human, UniProt P14780 107-707, limits assumed)
MMP7 = target: T2, MMP7 (UniProt P09237 95-267, limits assumed)
T2 sequence (looked up): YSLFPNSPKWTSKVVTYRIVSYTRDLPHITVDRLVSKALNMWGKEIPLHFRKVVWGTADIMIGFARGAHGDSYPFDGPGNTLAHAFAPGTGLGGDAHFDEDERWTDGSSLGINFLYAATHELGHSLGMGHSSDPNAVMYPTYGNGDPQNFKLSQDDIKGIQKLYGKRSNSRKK

MMP13 = MMP13 (human, UniProt P45452 104-471, limits assumed)
ADAMTS5 = target: T3, ADAMTS5 (human, UniProt Q9UNA0 262-622, limits assumed)
T3 sequence (looked up): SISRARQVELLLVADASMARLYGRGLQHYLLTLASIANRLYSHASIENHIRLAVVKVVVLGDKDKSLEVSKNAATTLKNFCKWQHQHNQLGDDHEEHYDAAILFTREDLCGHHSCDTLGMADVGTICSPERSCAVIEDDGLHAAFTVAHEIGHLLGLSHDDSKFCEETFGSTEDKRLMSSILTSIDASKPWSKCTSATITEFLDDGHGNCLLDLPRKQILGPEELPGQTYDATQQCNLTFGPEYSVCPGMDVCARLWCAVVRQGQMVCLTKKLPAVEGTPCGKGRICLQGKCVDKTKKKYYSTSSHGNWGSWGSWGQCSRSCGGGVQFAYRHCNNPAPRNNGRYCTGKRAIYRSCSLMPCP

MMP8 = MMP8 (human, UniProt P22894 101-467, limits assumed)
MMP3 = MMP3 (human, UniProt P08254 100-477, limits assumed)
Cathepsin G = target: T4, Cathepsin G (UniProt P08311 21-244)
T4 sequence (looked up): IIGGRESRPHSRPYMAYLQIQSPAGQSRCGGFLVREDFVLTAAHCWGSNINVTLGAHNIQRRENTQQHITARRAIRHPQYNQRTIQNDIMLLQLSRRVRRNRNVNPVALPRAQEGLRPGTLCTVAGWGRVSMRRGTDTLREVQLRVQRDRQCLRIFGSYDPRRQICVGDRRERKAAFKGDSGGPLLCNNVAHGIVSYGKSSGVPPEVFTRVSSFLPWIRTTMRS

MMP2 = target: T5, MMP2 (human, UniProt P08253 110-660, limits assumed)
T5 sequence (looked up): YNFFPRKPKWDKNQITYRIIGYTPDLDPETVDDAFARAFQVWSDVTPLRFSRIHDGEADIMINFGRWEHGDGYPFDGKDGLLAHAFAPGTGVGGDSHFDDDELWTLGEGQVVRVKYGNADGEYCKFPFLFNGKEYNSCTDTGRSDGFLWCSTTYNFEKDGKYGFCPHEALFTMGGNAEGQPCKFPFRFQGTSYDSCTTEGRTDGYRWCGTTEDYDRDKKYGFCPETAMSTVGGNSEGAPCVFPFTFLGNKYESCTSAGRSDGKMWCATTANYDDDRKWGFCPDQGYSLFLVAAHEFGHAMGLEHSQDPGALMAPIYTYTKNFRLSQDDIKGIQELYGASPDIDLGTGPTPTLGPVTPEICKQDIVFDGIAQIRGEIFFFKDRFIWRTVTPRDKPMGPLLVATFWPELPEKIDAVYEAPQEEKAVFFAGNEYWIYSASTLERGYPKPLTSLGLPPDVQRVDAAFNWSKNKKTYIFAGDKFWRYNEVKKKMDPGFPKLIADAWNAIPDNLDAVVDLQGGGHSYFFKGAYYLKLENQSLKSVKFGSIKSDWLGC

ADAMTS4 = target: T6, ADAMTS4 (human, UniProt O75173 213-685, limits assumed)
T6 sequence (looked up): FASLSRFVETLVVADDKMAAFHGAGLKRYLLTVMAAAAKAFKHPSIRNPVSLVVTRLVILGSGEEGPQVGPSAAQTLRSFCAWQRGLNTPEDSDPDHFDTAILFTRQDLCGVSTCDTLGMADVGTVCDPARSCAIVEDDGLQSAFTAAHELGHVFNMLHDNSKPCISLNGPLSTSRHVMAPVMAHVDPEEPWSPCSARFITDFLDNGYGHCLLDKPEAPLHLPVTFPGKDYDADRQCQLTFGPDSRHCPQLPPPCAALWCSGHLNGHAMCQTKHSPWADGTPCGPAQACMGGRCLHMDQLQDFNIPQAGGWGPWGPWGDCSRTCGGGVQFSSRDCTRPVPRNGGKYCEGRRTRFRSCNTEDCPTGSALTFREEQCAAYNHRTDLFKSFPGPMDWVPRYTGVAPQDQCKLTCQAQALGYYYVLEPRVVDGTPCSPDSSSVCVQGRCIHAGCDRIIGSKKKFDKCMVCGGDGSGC

Sequence of MMP8 (P22894 101-467 limits assumed): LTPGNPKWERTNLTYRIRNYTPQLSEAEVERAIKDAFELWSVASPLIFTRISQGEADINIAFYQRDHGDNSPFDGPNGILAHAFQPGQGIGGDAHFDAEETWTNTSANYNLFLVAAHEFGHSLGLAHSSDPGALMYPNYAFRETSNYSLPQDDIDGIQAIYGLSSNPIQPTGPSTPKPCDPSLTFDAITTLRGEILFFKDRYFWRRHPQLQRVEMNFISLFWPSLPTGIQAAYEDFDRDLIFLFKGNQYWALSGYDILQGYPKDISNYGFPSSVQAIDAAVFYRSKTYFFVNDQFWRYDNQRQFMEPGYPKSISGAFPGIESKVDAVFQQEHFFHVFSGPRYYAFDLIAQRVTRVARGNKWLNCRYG
Sequence of MMP9 (P14780 107-707 limits assumed): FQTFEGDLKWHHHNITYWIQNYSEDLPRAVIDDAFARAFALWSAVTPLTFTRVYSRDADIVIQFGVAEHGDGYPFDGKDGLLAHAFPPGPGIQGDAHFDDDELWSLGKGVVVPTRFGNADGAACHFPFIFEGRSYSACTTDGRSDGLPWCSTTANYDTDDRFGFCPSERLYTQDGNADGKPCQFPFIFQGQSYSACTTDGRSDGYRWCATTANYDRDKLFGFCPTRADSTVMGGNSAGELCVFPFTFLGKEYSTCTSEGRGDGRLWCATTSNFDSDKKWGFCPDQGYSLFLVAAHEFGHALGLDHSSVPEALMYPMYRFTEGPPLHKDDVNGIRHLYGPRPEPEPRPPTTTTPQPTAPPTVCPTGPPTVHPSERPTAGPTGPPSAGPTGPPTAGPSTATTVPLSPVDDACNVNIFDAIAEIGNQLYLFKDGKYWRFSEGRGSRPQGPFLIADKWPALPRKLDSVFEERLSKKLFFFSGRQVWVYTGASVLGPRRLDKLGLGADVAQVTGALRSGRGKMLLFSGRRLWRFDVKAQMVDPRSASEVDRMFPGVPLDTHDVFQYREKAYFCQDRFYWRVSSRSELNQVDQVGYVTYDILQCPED
Sequence of MMP3 (P08254 100-477 limits assumed): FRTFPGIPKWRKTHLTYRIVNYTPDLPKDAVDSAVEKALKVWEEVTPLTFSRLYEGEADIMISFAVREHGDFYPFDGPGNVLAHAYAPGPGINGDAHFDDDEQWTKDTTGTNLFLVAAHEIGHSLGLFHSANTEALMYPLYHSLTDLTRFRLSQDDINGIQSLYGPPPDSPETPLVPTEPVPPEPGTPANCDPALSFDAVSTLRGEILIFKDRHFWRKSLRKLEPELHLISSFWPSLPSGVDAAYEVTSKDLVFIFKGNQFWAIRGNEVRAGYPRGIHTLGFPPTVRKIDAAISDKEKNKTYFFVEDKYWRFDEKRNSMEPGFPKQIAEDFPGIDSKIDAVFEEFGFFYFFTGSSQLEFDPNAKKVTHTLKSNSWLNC

Binder	Protease Inhibition (% of WT) (Elastase)	Protease Inhibition (% of WT) (MMP1)	Protease Inhibition (% of WT) (MMP9)	Protease Inhibition (% of WT) (MMP7)	Protease Inhibition (% of WT) (MMP13)	Protease Inhibition (% of WT) (ADAMTS5)	Protease Inhibition (% of WT) (MMP8)	Protease Inhibition (% of WT) (MMP3)	Protease Inhibition (% of WT) (Cathepsin G)	Protease Inhibition (% of WT) (MMP2)	Protease Inhibition (% of WT) (ADAMTS4)
B1	131 % of WT	117 % of WT	39 % of WT	147 % of WT	145 % of WT	79 % of WT	81 % of WT	127 % of WT	157 % of WT	58 % of WT	222 % of WT
B2	39 % of WT	48 % of WT	9 % of WT	64 % of WT	56 % of WT	97 % of WT	28 % of WT	< 100 % of WT	12 % of WT	33 % of WT	120 % of WT
